B1: Rrp4 (S. solfataricus exosome RNA binding protein) (natural protein)
chain: MNMSQSQKIVLQPRSIVVPGELLAEGEFQIPWSPYILKINSKYYSTVVGLFDVKDTQFEVIPLEGSFYYPKINDIVIGLVEDVEIYGWVVDIKAPYKAYLPASNLLGRSINVGEDLRRYLDVGDYVIARIENFDRSIDPVLSVKGKDLGRVSNGIVIDIMPVKVPRVIGKNKSMYETLTSKSGCSIFVANNGRIWATCPSRFSEEILIEAIRKIENESHIKGLTDRIKQFIEEKLGERNASSGETKTNS
notes: Three copies stand in the 9-subunit complex; source: E. coli, recombinantly expressed, purified

Assays:
[1] = target: S. solfataricus exosome, nonameric 3*(Rrp41/Rrp42/Rrp4) complex (Saccharolobus solfataricus, UniProt Q9UXC2, D182A); conditions: 1.8 Å Pi-bound structure (4ba1), 10 mM Pi soak with 1 mM 7mer poly(A) RNA, RNA not visible; also 2.5 Å structure with RNA and Pi (4ba2); Rrp41 active site R99, G137, S138, R139; catalytically inactive
[2] = target: B1; assay: crystal structure; Rrp4/Rrp41^D182A/Rrp42 crystals, space group P213, one copy of each subunit in the asymmetric unit; soaked with 7 mer poly(A) RNA and Pi; 1.8 Å (Pi bound) and 2.5 Å (RNA and Pi bound); conditions: both partners purified
[3] = target: T1, Rrp42 (S. solfataricus exosome RNase PH subunit) (S. solfataricus, UniProt Q9UXC0 1-275); assay: as above; conditions: both partners purified
T1 construct: Rrp42, RNase PH subunit of the Sulfolobus solfataricus exosome; Three copies stand in the 9-subunit complex; source: E. coli, recombinantly expressed, purified
T1 sequence: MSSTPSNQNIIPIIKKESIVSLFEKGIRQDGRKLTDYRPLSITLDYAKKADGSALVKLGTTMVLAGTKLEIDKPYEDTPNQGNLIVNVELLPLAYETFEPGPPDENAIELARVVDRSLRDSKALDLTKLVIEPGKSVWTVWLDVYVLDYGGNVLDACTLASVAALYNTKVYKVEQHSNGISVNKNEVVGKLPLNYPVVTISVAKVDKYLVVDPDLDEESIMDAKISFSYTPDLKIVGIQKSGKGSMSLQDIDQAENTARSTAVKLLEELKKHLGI

binding result [2]	binding result [3]	Molecule	X-ray crystal structure, crystal soaking [1]
–	–	O=P(O)(O)O [Pi, inorganic phosphate]	the Pi ion is bound by four residues from the Rrp41 subunit
binds	binds	Rrp41^D182A (S. solfataricus exosome RNase PH subunit Rrp41 with the D182A point mutation) (enzyme, Rrp41, RNase PH subunit of the Sulfolobus solfataricus exosome, with D182A; Three copies stand in the 9-subunit complex 3*(Rrp41/Rrp42/Rrp4); the construct is not described here; source: E. coli, recombinantly expressed, purified) MREMLQVERPKLILDDGKRTDGRKPDELRSIKIELGVLKNADGSAIFEMGNTKAIAAVYGPKEMHPRHLSLPDRAVLRVRYHMTPFSTDERKNPAPSRREIELSKVIREALESAVLVELFPRTAIDVFTEILQADAGSRLVSLMAASLALADAGIPMRDLIAGVAVGKADGVIILDLNETEAMWGEADMPIAMMPSLNQVTLFQLNGSMTPDEFRQAFDLAVKGINIIYNLEREALKSKYVEFKEEGV	–
–	binds	B1	–

Reference: PMC3539426, “Crystal Structure of a 9-Subunit Archaeal Exosome in Pre-Catalytic States of the Phosphorolytic Reaction” (Archaea, 2012)
